Measured values from patent US20130156779A1 (GlaxoSmithKline, published 2013).
Where two headings read alike, the source gives them in different places.

Experiments:
[1] = target: T1, Murine HER3 on B16 and B16F10 melanoma cells (murine, UniProt Q61526 20-1339); experiment: flow cytometry on B16F10 murine melanoma cells, antibody labelled with a Zenon APC kit [c]
T1 construct: whole, on cells
Source text: B16F10 ZENON™ labeling kits: [0530] Mouse IgG1 PE—Invitrogen Z25021 [0531] Mouse IgG1 APC—Invitrogen Z25051 [0532] Mouse IgG2b APC—Invitrogen Z25151 Method: Commercially available anti-human EGFR and HER2 antibodies were provided. A commercially available HER3 antibody represented by the provider to recognizes human HER3 was provided. The murine 15D5 antibody, murine 1D9 antibody (M5.1D9.1F5), murine 24H5 antibody (M5.24H5.C2) antibodies were also provided. These antibodies were labeled with either PE or APC using the ZENON™ labeling kits (Invitrogen). 5×10⁶ B 16, or B16F10, murine melanoma cells were added to flow cytometry tubes containing the labeled anti-HER3 antibodies. Cells and antibodies were incubated for 30 minutes on ice in the dark, washed and resuspended in FACS buffer. Cells were then analyzed on a FACSCANTO™ flow cytometer. Data analysis was performed using […]™ software, developed by BD Biosciences. Cell populations were gated using forward vs. side scatter and histograms of fluorescent intensities were generated.

Human HER3 ECD domain I = target: T2, Human HER3 ECD domain I (human, UniProt P21860 20-183); experiment: DELFIA, plate coated with HER3 Domain I 1ug/ml
T2 construct: also called D1; sub-domain 1
Description: (§1) Dissociation Enhanced Lanthanide Fluorescence Immunoassay (DELFIA) for detection of the anti-HER3 antibodies to HER3 extracellular domain (ECD) was used. The DELFIA procedures were as follows: white Maxisorp 96-well plates (Nunc #437796) were coated with 100 ul/well of 1 ug/ml HER-3 ECD full length or HER3Domain I, II, III and IV in 0.1M carbonate buffer pH 9.5 overnight at 4° C. These plates were blocked with casein in TBS (Thermo Scientific #37532 lot#JD121074). The neat hybridoma supernatant, or the purified anti-HER3 antibodies diluted in Perkin Elmer #4002-0010 Assay Buffer from 10 ug/ml (or 100 ug/ml) to 0.01 ug/ml, or the PK serum samples with a minimum of 3 dilutions (100 ul/well) were added to the plate. These samples were incubated for 2 hours at room temperature while on a plate shaker or overnight at 4° C. […] The plate was washed 4 times with tris-buffer plus 0.05% tween-20 (Perkin Elmer #4010-0010) on a BIOTEK™ plate washer following each antibody incubation step. 100 ul/well of DELFIA enhancement solution (Perkin Elmer 1244-105) was added for 5 minutes at room temperature. […] Antibody binding was recorded as europium counts per well.

Human HER3 ECD domain IV = target: T3, Human HER3 ECD domain IV (human, UniProt P21860 496-643); experiment: DELFIA, plate coated with HER3 Domain IV 1ug/ml
T3 construct: also called D4; sub-domain 4
Description: as §1

Human HER3 ECD domain II [2] = target: T4, Human HER3 ECD domain II (human, UniProt P21860 184-329); experiment: affinity summary table, method not given
T4 construct: also called D2; Domain 2

[3] = target: T5, Full-length human HER3 extracellular domain (ECD) (human, UniProt P21860 20-643); experiment: affinity summary table, method not given
T5 construct: also called human HER3 ECD; HER-3 ECD full length

Human HER3 ECD domain II [4] = target: T4, Human HER3 ECD domain II; experiment: BIACORE 2000 SPR, mAb captured, HER3 protein as analyte, 25 C
[5] = target: T6, Human HER3 ECD domain 2-3 protein (human, UniProt P21860 184-495); experiment: as above
T6 construct: also called D2-3; sub-domains 2-3

[6] = target: T5, Full-length human HER3 extracellular …; experiment: as above
[7] = target: T7, Human HER3 ECD domain 1-2 protein (human, UniProt P21860 20-329); experiment: as above
T7 construct: also called D1-2; sub-domains 1-2

[8] = target: T8, Human HER3 ECD domain III (human, UniProt P21860 330-495); experiment: DELFIA, plate coated with HER3 Domain III 1ug/ml
T8 construct: also called D3; Domain 3
Description: as §1

Human HER3 ECD domain II [9] = target: T4, Human HER3 ECD domain II; experiment: DELFIA (europium time-resolved fluorescence), plate coated with HER3 Domain II 1ug/ml, antibody titrated 0.001-10 ug/ml
Human HER3 receptor [10] = target: T9, Human HER3 receptor (human, UniProt P21860 20-1342); experiment: cell-based or functional assay
Human HER3 receptor [11] = target: T9, Human HER3 receptor; experiment: cell-based or functional assay; remark: listed apart in the source
Human HER3 receptor [12] = target: T9, Human HER3 receptor; experiment: cell-based or functional assay; remark: listed apart in the source
Human HER3 receptor [13] = target: T9, Human HER3 receptor; experiment: cell-based or functional assay; remark: listed apart in the source

T9 sequence (P21860 20-1342 limits assumed): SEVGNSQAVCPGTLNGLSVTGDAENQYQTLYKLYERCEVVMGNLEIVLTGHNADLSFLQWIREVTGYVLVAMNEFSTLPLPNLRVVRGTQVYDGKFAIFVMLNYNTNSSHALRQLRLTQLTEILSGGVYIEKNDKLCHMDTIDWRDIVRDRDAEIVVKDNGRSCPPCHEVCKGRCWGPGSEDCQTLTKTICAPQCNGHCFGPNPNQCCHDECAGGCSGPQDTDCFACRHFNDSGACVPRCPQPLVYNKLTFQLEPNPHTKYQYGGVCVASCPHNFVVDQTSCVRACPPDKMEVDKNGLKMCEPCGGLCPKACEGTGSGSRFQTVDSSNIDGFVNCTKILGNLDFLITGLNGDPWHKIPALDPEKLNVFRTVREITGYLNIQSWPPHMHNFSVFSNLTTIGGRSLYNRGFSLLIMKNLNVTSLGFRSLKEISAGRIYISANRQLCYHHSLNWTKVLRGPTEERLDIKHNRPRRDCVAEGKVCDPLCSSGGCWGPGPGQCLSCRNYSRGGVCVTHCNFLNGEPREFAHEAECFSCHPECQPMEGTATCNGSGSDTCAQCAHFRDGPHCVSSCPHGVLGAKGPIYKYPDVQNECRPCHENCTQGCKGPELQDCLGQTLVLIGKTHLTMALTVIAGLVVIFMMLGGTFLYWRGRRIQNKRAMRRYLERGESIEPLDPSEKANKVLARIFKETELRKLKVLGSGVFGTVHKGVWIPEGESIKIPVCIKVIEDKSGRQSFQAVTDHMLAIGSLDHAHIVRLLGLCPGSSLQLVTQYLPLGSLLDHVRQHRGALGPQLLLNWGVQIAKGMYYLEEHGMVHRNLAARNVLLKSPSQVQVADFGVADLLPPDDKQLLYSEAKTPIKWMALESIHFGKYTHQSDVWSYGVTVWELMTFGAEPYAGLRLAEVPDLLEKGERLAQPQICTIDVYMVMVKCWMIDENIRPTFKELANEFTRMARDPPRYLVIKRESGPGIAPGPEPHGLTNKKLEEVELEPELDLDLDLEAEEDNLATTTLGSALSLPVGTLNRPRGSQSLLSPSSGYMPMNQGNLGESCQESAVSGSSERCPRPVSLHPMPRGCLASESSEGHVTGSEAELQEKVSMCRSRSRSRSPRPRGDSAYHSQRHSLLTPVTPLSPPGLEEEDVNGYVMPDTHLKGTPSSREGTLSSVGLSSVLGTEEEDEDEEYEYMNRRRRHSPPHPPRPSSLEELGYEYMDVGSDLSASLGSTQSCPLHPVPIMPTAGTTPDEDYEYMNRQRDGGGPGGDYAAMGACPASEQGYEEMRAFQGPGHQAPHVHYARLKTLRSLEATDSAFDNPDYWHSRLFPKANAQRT
T4 sequence (P21860 184-329): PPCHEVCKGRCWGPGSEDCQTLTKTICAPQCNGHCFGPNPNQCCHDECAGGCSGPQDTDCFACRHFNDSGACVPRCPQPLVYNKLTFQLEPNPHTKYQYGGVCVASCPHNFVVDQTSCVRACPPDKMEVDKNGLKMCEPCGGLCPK
T5 sequence (P21860 20-643): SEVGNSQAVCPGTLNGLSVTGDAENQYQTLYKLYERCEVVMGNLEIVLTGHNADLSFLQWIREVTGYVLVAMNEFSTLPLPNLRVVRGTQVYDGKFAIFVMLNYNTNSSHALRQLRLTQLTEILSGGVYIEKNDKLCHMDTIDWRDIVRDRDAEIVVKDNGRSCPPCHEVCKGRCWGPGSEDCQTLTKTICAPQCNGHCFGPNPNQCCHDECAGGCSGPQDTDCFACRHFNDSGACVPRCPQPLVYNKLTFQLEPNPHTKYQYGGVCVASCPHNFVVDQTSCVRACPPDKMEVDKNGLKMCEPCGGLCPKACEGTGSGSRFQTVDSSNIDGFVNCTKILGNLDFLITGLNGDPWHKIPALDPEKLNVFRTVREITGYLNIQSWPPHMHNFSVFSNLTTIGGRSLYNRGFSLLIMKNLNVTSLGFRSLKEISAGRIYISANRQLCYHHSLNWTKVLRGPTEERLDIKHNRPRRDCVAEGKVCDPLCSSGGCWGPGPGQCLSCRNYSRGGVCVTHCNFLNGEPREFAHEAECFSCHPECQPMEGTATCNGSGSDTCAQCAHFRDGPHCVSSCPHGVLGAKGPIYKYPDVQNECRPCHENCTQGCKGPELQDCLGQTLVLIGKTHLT
T7 sequence (P21860 20-329): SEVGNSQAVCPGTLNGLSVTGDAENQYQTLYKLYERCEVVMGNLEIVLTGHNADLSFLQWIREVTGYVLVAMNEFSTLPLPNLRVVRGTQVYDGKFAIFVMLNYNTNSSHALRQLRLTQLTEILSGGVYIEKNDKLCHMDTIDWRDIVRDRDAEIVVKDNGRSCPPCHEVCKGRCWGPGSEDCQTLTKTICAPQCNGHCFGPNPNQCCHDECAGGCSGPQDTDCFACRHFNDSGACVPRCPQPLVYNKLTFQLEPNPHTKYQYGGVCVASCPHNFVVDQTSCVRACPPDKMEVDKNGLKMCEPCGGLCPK
T6 sequence (P21860 184-495): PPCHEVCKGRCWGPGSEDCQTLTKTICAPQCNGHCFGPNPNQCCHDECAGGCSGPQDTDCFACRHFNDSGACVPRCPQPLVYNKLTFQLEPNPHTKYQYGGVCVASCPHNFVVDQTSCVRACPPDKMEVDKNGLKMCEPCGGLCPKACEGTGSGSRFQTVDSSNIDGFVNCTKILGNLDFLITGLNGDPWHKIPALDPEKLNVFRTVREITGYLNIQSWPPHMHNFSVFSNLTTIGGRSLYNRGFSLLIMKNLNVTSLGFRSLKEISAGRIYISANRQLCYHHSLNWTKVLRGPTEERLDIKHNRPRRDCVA
T8 sequence (P21860 330-495): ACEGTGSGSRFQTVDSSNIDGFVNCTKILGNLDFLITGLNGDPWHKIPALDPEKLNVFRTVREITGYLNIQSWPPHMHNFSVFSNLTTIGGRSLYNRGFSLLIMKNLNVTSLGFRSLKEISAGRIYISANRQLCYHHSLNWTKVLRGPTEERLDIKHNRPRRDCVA
T1 sequence (Q61526 20-1339, one chain of several): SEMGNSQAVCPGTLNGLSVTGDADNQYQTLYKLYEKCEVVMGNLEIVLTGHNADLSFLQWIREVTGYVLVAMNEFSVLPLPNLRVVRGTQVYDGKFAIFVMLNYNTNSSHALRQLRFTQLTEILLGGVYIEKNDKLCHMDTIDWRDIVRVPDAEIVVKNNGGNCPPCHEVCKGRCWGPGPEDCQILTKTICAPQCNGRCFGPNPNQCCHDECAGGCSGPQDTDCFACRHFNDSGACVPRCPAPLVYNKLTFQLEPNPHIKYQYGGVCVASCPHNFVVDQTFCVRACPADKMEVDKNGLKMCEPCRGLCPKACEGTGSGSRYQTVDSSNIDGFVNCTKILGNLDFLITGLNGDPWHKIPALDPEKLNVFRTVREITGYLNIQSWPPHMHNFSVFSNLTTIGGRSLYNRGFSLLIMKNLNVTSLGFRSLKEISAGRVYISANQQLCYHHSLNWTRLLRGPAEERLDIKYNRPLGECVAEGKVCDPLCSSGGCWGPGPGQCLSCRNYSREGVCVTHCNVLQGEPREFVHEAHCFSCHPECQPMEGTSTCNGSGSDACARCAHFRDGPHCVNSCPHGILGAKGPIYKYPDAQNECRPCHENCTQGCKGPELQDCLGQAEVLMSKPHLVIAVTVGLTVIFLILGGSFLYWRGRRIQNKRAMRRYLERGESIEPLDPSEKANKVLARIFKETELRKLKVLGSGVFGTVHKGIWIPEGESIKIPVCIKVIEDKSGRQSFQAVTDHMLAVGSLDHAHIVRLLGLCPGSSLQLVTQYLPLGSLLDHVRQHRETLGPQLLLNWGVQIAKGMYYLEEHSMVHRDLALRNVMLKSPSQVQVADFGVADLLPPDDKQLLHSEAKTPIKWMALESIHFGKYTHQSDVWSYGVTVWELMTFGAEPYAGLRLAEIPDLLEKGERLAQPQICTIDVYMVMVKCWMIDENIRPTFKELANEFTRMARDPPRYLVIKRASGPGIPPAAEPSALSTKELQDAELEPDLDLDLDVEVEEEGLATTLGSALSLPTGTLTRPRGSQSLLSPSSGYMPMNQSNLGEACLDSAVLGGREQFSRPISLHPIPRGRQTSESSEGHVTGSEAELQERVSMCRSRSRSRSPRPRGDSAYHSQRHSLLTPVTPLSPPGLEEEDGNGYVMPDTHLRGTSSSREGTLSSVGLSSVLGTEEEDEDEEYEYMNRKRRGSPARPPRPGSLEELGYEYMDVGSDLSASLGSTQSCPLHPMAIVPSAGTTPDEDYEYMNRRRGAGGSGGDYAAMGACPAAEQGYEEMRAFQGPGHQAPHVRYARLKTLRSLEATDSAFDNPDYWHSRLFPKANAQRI
T3 sequence (P21860 496-643): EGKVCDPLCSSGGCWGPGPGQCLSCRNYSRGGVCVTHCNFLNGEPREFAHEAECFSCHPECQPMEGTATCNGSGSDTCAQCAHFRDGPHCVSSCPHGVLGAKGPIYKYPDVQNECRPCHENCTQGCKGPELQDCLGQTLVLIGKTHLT
T2 sequence (P21860 20-183): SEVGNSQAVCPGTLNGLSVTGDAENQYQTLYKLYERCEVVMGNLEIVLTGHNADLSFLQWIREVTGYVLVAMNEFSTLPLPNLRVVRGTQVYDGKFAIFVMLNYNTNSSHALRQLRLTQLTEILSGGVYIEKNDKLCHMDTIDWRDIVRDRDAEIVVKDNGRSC

B1: Murine 15D5 antibody (M5.15D5.2A1.1H10) (antibody, IgG1, V domains shown)
VH: EFQLQQSGPELVKPGASVKISCKASGYSFTDYNMNWVKQNNGKSLEWIGGINPNYGTTVYNQKFKGKATLTVDQSSSTAYMQLVSLTSEDSAVYYCARMTTIVPFDYWGQGTTLTVSS
VL: DIQMTQTTFSLSASLGDRVTISCRASQDISNYLNWYQQKPDGTVKLLIYYTSTLHSGVPSRFSGSGSGTDYFLTIRNLEEEDIATYFCQQGYTLPWTFGGGTKLDIK
notes: Mouse monoclonal, IgG1; also called m15D5; M5.15D5.1C1
binding result [1]: binds
binding result (Human HER3 ECD domain I): no binding (tested: 10 ug/ml)
binding result (Human HER3 ECD domain IV): no binding (tested: 10 ug/ml)
Kd (Human HER3 ECD domain II [2]): 0.07 nM
Kd [3]: ~2 nM
Kd (Human HER3 ECD domain II [4]): 0.07 nM
kon (Human HER3 ECD domain II [4]): 1.76e+06 M⁻¹ s⁻¹
Kd [5]: 0.06 nM
kon [5]: 1.4e+06 M⁻¹ s⁻¹
Kd [6]: 2.32 nM
kon [6]: 41200 M⁻¹ s⁻¹
Kd [7]: 0.17 nM
kon [7]: 345000 M⁻¹ s⁻¹
binding result [8]: no binding (tested: 10 ug/ml)
EC50 (read off the curve) (Human HER3 ECD domain II [9]): ~0.2 µg/mL
Phospho-HER3 ELISA IC50, betacellulin induced, SK-BR-3 cells (Human HER3 receptor [10]): 36.8 ng/mL
Phospho-HER3 ELISA IC50, epidermal growth factor induced, SK-BR-3 cells (Human HER3 receptor [10]): 23.3 ng/mL
Phospho-HER3 ELISA IC50, heregulin induced, SK-BR-3 cells (Human HER3 receptor [10]): 19.1 ng/mL
Phospho-HER3 ELISA IC50, heregulin induced, BT-474 cells (Human HER3 receptor [11]): 120 ng/mL
Phospho-HER3 ELISA IC50, heregulin induced, BxPC3 cells (Human HER3 receptor [11]): 54.1 ng/mL
Phospho-HER3 ELISA IC50, heregulin induced, CHL-1 cells (Human HER3 receptor [11]): 138 ng/mL
Phospho-HER3 ELISA IC50, heregulin induced, MCF7 cells (Human HER3 receptor [11]): 59.3 ng/mL
Phospho-HER3 ELISA IC50, heregulin induced, N87 cells (Human HER3 receptor [11]): 53.3 ng/mL
Phospho-HER3 ELISA IC50, heregulin induced, SK-BR-3 cells (Human HER3 receptor [11]): 19.1 ng/mL
Phospho-AKT ELISA IC50, heregulin induced, BxPC3 cells (Human HER3 receptor [12]): 60.5 ng/mL
Phospho-HER3 … IC50, heregulin induced, CHO EGFR + HER3 (Human HER3 receptor [13]): 103 ng/mL
Phospho-HER3 … IC50, heregulin induced, CHO HER4 + HER3 (Human HER3 receptor [13]): 141 ng/mL
